The values below come from US9192648.

The test deals with complement C5. The test is described as follows: assay for the IC50 not described; told with the direct binding to C5 (FIG. 4C).

Consider “EV576 protein (from UniProt Q5YD59 19-168)”, for which the IC50 (commonly the concentration needed to halve the response being measured) came out at 20 µg/mL.
